Our source for the self-cleavage values is the RNAGym collection of RNA variant scans (doi:10.7554/elife.80360).

B1: Hammerhead Ribozyme (parent)
chain: ACCGGAUGUGCUUUCCGGUCUGAUGAGUCCGUGAGGACGAAACAG

The variants in the data set derive from B1. Nature of the data set: self-cleavage, relative activity (ratio to wild type); higher = more cleavage; co-transcriptional.
In the case of ACCGGAUGUGCUUUCCGGUCUGAUGAGGCCGUGAGGGCGAAACAG [U28G A37G], the self-cleavage came to 0.45.

As for ACCGGAUGUGCUUUCCCGUCUGGUGAGUCCGUGAGGACGAAACAG [G17C A23G], the self-cleavage turned out to be 0.417.

Consider CCCGGAUGUGCUUUCCGCUCUGAUGAGUCCGUGAGGACGAAACAG [A1C G18C], for which the self-cleavage stood at 0.399.

Turning to ACCGGAUGUGCUUUCCGGUCUGAUGAGUCUGUGAGGUCGAAACAG [C30U A37U], the self-cleavage is 0.643.

With ACCGGAUGUGCUUUCCGGUCUGAUGAGUCUGUGAGGCCGAAACAG [C30U A37C], the self-cleavage was 1.08.

On to ACCGGAUGUGCUUUUCGGUCUGACGAGUCCGUGAGGACGAAACAG [C15U U24C], for which the self-cleavage was 0.812.

For ACCGGAAGUGCUUUCCGGUCUGAUGAGUCCGUAAGGACGAAACAG [U7A G33A], the self-cleavage is 1.45.

For the variant ACCGGAUGUGCUUUCCGGUCUGAUGAGCCCGAGAGGACGAAACAG [U28C U32A], the self-cleavage is 0.984.

ACCGGAUGUGCUUUCCGGUCUGAUUAGUCCGUAAGGACGAAACAG [G25U G33A]: the self-cleavage was 0.374.

For ACCGGAUGUGCUUGCCGGUCUGAUGAGUCCGUGAGGACGAAAUAG [U14G C43U], the self-cleavage worked out at 0.547.

GCCGGAUGUGCUUUCCGGUCUGAUGAGUCCAUGAGGACGAAACAG [A1G G31A]: the self-cleavage was 1.79.

For ACCGGAUGUGCUUUCAGGUCUGUUGAGUCCGUGAGGACGAAACAG [C16A A23U], the self-cleavage was determined as 0.305.

Regarding ACCGGAUGUGCUUUCCCGUCUGAAGAGUCCGUGAGGACGAAACAG [G17C U24A], the self-cleavage is 0.493.

As to ACCGGAUGAGCUUUCCGGUCUGAUGAGUCCGUGAGGACGAAACAU [U9A G45U], the self-cleavage came out at 0.638.

Regarding ACCGGAUGUGCAUUCCGCUCUGAUGAGUCCGUGAGGACGAAACAG [U12A G18C], the self-cleavage turned out to be 0.565.

For the variant ACCGGAUGUGCUUUCCGGUCUGAUGAAUCCGUAAGGACGAAACAG [G27A G33A], the self-cleavage came to 1.1.

Consider AACGGAUAUGCUUUCCGGUCUGAUGAGUCCGUGAGGACGAAACAG [C2A G8A], for which the self-cleavage stood at 0.587.

Take ACCGGAUGUGCUUUCCGGUCUGAUGAGUUCGAGAGGACGAAACAG [C29U U32A]: the self-cleavage was found to be 0.902.

Consider ACCGGAUGUGCUUUCCGGUCUGAUAAGUCCGUAAGGACGAAACAG [G25A G33A], for which the self-cleavage turned out to be 0.379.

Regarding ACCGGAUGUCCUUUACGGUCUGAUGAGUCCGUGAGGACGAAACAG [G10C C15A], the self-cleavage stood at 0.591.

Take ACCGGAUGUGCUUUACGGUCUGAUCAGUCCGUGAGGACGAAACAG [C15A G25C]: the self-cleavage came out at 0.381.

Consider ACCGGUUGUGCUUUCCGGUCUGAUGAGUCCGUGAGGACGAAACAC [A6U G45C], for which the self-cleavage stood at 0.39.

On to ACCGGAUCUGCUUUCCGGUCUGAGGAGUCCGUGAGGACGAAACAG [G8C U24G], for which the self-cleavage came out at 1.05.

In the case of ACCGGAUGUGAUUUCGGGUCUGAUGAGUCCGUGAGGACGAAACAG [C11A C16G], the self-cleavage stood at 1.1.

In the case of ACCGUAUGUGCUUUCCGGUCUGAUGAGUCCGUGGGGACGAAACAG [G5U A34G], the self-cleavage is 0.882.

ACCGGGUGUGCUUACCGGUCUGAUGAGUCCGUGAGGACGAAACAG [A6G U14A]: the self-cleavage came out at 0.436.

Regarding ACCGGAUGUGCAUUCCGGUCUGAUGAGUCCGUGAGGACGAACCAG [U12A A42C], the self-cleavage was 0.359.

On to ACCGGAUGAGCUUUCCGGUCUGAGGAGUCCGUGAGGACGAAACAG [U9A U24G], for which the self-cleavage worked out at 0.919.

With AGCGGAUGUGCUUUCCGGUCUGAUGAGUCCGUAAGGACGAAACAG [C2G G33A], the self-cleavage amounted to 0.463.

On to ACCGGAUGUGCUCUCUGGUCUGAUGAGUCCGUGAGGACGAAACAG [U13C C16U], for which the self-cleavage came out at 0.976.

ACCGGAUGUGCUUUCCGGUCUCAUGAGUCCGUGAGGACGAAACAA [G22C G45A]: the self-cleavage was found to be 0.328.

On to ACCGGAUGUGCUUUCCGGUCUGAUCAGUCCGUGAGGACGAAAUAG [G25C C43U], for which the self-cleavage turned out to be 0.425.

ACCGGAUGUGCUUUCCGGUCUGAUGAGACCGUGCGGACGAAACAG [U28A A34C]: the self-cleavage came out at 0.623.

ACCGGAUAUGCUUUCCGAUCUGAUGAGUCCGUGAGGACGAAACAG [G8A G18A]: the self-cleavage amounted to 0.664.

Turning to ACCGGAUGUGCUUUCCGAUCUGAUGAGUCCGUGUGGACGAAACAG [G18A A34U], the self-cleavage came to 0.515.

In the case of ACCGGAUGUGCUGUCCGGUCUGCUGAGUCCGUGAGGACGAAACAG [U13G A23C], the self-cleavage worked out at 0.356.

For the variant ACCGGAUGUGCUUUCCGGUCUGAUGAGUCCGAAAGGACGAAACAG [U32A G33A], the self-cleavage turned out to be 0.961.

ACCGGAUGUGCUUUCGGGUCUGAUGAGUCCGUGUGGACGAAACAG [C16G A34U]: the self-cleavage turned out to be 0.709.

In the case of ACCGGAUGUGCUCUCCGGUCUGAUGAGUCCGUGAUGACGAAACAG [U13C G35U], the self-cleavage was 0.744.

For ACUGGAUGUUCUUUCCGGUCUGAUGAGUCCGUGAGGACGAAACAG [C3U G10U], the self-cleavage stood at 1.22.

Consider ACCGGUUGUGCUUUCCGGUCUGAUGAGUCCGUGAGGACGAUACAG [A6U A41U], for which the self-cleavage came to 0.282.

In the case of ACCGGAUGUGCUUUCCGGUCUGAUGCGUCCGUGUGGACGAAACAG [A26C A34U], the self-cleavage was determined as 0.344.

Consider ACCGGGUGUGCUUUCCGGUCUGAUGAAUCCGUGAGGACGAAACAG [A6G G27A], for which the self-cleavage was 0.657.

For ACCGGAUGUGCCUUCCGGCCUGAUGAGUCCGUGAGGACGAAACAG [U12C U19C], the self-cleavage came out at 0.577.

Regarding ACCGGAUGUGCUUUCCGGUCUGAUGAGUCCUUGAGGAGGAAACAG [G31U C38G], the self-cleavage came to 0.59.

Regarding ACCAGAUGUGCUUUCCGGUCUGAUCAGUCCGUGAGGACGAAACAG [G4A G25C], the self-cleavage came out at 0.32.

Consider ACCUGAUGUGCUUUCCGGCCUGAUGAGUCCGUGAGGACGAAACAG [G4U U19C], for which the self-cleavage stood at 0.345.

As for ACCGGAUGUGCAUUCCGGUCUGAGGAGUCCGUGAGGACGAAACAG [U12A U24G], the self-cleavage stood at 1.23.

ACCGGAUGUGCCUUCCGGUCUGAUGAGUCGGUGAGGACGAAACAG [U12C C30G]: the self-cleavage was 0.84.

On to ACCGGAUGUGCUUUCCGGUCUGUUGAGUUCGUGAGGACGAAACAG [A23U C29U], for which the self-cleavage came to 0.322.

ACCGGACGUGCUUACCGGUCUGAUGAGUCCGUGAGGACGAAACAG [U7C U14A]: the self-cleavage worked out at 1.26.

For AUCGGAUGUGCUUUCCGGUCUGAUGAGUCCGUGAGGACGAAAAAG [C2U C43A], the self-cleavage is 0.361.

For the variant ACCGGAUCGGCUUUCCGGUCUGAUGAGUCCGUGAGGACGAAACAG [G8C U9G], the self-cleavage turned out to be 0.771.

For ACCGGAUGUGCUUUCCGGUCUGAUUAGUCCGUGGGGACGAAACAG [G25U A34G], the self-cleavage stood at 0.261.

With ACCGGAUGUGCUUUCCGGUCUGAUGAGACCGUGAGGACGAAACAC [U28A G45C], the self-cleavage came to 0.365.

Turning to ACCGGAUGUGCUUUCCGGUCUGAUGAGACCGUGAGGACGAAACAA [U28A G45A], the self-cleavage is 0.436.

Take UCCGGAUGUGGUUUCCGGUCUGAUGAGUCCGUGAGGACGAAACAG [A1U C11G]: the self-cleavage was 0.646.
